Measured values published in US20160331662A1, “Compositions that Inhibit and Prevent the Formation of Dental Caries and Methods of Using the Same” (priority 2014, published 2016).
No end group written: not given here. FAM = fluorescein amidite

T1: FL^SspB (S. gordonii DL1 SspB, residues 39-1433) (Streptococcus gordonii DL1), P16952
T1 chain: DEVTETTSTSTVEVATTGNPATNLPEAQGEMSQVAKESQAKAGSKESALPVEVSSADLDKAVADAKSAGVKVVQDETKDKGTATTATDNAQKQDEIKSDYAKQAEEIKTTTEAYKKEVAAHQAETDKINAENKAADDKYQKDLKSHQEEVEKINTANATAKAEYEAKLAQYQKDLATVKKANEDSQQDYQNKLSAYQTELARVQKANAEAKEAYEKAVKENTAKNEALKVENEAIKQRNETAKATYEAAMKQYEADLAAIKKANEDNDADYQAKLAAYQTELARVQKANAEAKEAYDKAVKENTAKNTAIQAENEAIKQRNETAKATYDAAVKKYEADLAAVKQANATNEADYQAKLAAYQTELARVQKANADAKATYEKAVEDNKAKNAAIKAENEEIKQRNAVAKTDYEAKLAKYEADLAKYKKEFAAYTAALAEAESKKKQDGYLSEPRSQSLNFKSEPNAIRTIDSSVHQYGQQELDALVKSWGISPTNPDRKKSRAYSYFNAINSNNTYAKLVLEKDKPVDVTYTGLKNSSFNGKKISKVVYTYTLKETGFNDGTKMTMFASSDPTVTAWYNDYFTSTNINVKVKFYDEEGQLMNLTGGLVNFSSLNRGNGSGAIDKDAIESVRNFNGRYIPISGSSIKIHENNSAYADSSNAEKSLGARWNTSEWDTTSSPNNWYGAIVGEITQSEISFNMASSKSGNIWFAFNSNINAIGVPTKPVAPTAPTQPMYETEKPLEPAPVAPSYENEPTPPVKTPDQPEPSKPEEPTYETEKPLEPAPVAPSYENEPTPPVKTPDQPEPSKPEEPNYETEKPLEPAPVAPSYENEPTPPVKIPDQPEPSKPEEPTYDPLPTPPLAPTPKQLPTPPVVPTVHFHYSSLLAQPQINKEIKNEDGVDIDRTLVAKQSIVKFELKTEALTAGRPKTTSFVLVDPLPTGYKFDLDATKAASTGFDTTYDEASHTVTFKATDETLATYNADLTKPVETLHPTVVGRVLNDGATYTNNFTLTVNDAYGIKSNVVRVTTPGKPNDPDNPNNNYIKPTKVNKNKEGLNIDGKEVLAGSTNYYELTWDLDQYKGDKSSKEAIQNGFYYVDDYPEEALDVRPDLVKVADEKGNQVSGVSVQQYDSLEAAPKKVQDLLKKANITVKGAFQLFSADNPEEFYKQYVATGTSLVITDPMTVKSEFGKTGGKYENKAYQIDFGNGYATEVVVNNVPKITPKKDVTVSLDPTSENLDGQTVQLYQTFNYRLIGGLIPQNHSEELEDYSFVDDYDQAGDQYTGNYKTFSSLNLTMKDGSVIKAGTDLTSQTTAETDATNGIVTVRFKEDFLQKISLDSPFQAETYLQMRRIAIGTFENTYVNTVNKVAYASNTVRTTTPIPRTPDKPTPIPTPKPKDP

T2: FL^AgI/II (S. mutans UA159 Antigen I/II, full length recombinant construct) (Streptococcus mutans UA159), P23504
T2 chain: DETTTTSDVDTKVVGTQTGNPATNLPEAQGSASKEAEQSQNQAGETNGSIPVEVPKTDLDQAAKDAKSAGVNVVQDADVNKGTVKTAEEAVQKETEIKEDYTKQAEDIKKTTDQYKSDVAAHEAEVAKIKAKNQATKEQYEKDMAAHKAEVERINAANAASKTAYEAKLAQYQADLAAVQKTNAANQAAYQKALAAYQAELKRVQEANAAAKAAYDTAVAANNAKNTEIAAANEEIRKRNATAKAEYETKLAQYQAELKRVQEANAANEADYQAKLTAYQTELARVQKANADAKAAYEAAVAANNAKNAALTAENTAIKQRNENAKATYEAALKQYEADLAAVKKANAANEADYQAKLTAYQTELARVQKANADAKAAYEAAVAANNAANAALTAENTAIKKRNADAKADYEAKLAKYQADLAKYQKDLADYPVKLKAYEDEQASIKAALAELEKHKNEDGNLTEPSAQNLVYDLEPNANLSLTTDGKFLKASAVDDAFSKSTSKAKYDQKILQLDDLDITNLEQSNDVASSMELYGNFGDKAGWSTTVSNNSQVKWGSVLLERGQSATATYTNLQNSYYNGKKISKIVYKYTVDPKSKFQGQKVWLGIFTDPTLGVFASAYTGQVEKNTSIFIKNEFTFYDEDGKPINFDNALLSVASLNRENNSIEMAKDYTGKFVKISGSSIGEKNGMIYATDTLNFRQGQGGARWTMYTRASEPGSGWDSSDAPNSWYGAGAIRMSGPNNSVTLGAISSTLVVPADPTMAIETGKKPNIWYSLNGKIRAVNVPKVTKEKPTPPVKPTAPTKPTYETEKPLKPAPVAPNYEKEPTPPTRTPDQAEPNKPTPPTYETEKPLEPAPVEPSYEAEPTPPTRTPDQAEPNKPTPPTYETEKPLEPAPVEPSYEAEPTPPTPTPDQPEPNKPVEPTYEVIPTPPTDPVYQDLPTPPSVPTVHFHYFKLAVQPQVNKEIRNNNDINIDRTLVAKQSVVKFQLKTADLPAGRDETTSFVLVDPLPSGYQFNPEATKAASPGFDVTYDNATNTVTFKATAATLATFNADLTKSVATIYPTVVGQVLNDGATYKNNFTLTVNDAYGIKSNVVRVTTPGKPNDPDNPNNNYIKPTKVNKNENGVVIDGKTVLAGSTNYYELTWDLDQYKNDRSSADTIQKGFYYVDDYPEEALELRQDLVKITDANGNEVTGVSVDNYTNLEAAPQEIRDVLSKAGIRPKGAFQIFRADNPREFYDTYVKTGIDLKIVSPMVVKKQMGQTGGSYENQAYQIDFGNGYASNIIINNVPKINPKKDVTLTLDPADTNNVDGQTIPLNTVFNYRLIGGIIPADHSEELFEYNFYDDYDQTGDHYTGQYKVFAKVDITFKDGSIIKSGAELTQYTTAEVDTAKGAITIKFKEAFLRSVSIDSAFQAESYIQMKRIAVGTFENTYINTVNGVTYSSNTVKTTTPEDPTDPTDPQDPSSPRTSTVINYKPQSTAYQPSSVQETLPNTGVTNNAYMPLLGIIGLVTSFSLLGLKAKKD

T3: A3VP1^AgI/II (Streptococcus mutans UA159), P23504
T3 chain: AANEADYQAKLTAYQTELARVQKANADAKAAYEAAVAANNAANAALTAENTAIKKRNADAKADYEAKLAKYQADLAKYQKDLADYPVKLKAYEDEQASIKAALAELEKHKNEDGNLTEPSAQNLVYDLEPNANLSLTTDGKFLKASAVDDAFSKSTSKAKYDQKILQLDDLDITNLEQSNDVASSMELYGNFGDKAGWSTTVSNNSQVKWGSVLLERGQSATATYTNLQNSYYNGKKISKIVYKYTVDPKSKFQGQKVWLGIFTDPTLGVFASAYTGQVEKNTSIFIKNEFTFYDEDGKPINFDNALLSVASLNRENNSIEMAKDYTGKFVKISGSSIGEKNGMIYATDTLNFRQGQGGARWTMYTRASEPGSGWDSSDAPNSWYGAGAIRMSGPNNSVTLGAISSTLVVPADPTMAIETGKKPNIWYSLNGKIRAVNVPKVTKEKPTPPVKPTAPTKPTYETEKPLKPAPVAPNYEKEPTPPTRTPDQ

T4: C123^AgI/II (Streptococcus mutans UA159), P23504
T4 chain: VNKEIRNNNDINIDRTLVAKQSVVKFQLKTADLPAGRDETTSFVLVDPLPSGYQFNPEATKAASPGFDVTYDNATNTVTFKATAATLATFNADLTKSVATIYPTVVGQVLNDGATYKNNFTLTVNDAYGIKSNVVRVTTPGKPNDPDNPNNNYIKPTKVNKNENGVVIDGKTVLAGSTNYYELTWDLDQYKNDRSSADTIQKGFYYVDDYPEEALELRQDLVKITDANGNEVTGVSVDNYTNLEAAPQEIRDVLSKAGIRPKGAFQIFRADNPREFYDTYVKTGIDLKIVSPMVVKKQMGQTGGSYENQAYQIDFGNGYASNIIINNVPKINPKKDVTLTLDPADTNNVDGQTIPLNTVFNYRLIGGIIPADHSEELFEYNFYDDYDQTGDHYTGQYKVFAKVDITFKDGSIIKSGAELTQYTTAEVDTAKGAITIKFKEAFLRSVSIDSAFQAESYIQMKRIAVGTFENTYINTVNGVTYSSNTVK


Assays:
[1] = biological target: GbpC (S. mutans), glucan binding protein C (Streptococcus mutans); assay: SPR, peptide over immobilized GbpC
[2] = biological target: T1, FL^SspB (S. gordonii DL1 SspB, residues …); assay: SPR; 2 µM FL^SspB incubated with 0.005 mM peptide, over immobilized iSRCR1
[3] = biological target: A3VP1^SspB (S. gordonii DL1 SspB, residues 386-805) (Streptococcus gordonii DL1) (UniProt P16952); assay: SPR; 2 µM A3VP1^SspB incubated with 0.005 mM peptide, over immobilized iSRCR1
[4] = biological target: A3VP1^SspB (S. gordonii DL1 SspB, residues 386-805) (Streptococcus gordonii DL1) (UniProt P16952)
[5] = biological target: C123^SspB (S. gordonii DL1 SspB, residues 913-1406) (Streptococcus gordonii DL1) (UniProt P16952)
[6] = biological target: T2, FL^AgI/II (S. mutans UA159 Antigen …); assay: SPR; 2 µM FL^AgI/II incubated with 0.005 mM peptide, over immobilized iSRCR1
[7] = biological target: T1, FL^SspB (S. gordonii DL1 SspB, residues …)
[8] = biological target: T3, A3VP1^AgI/II (Streptococcus mutans …)
[9] = biological target: T4, C123^AgI/II (Streptococcus mutans …)
[10] = biological target: T2, FL^AgI/II (S. mutans UA159 Antigen …)
[11] = biological target: T3, A3VP1^AgI/II (Streptococcus mutans …); assay: SPR; 2 µM A3VP1^AgI/II incubated with 0.005 mM peptide, over immobilized iSRCR1

Row | Binder | Ka [1] [M⁻¹] | Kd [1] [nM] | koff [1] [s⁻¹] | kon [1] [M⁻¹ s⁻¹] | % improvement of adherence to iSRCR1 [2] [%] | % change of adherence to iSRCR1 [3] [%] | % change of adherence to iSRCR123 [4] [%] | % change of adherence to iSRCR1 [5] [%] | % change of adherence to iSRCR123 [5] [%] | % improvement of adherence to iSRCR1 [6] [%] | % improvement of adherence to iSRCR123 [7] [%] | % improvement of adherence to iSRCR123 [8] [%] | % change of adherence to iSRCR1 [9] [%] | % change of adherence to iSRCR123 [9] [%] | % improvement of adherence to iSRCR123 [10] [%] | % improvement of adherence to iSRCR1 [11] [%]
1 | ETNDANVVARQL (modifications not checked) [SRCR peptide …] | 2.57e+08 | 3.89 | 0.0573 | 1.47e+07 |  |  |  |  |  |  |  |  |  |  |  | 
2 | QGRVEVLYRGSWGTVCK-{FAM} [SRCRP2 peptide with fluorescein amidite (FAM) at the carboxyl end (…-[FAM])] |  |  |  |  | 97 | 3 | 3 | 4 | 5 | 8 | 91 | 16 | 2.3 | 7 | 8 | 13
